Measured values taken from publication PMC4586175 (Oncogene, 2009).

Target: purified GST-RACK1 (human, UniProt P63244 1-317)
Assay: pull-down

B1: purified His-WRN protein (natural protein)
chain: not shown
- binding result: binds
